Consider 1 substance from patent US20020018783A1.

This assay concerns the target endogenous CD28 (human, on Jurkat cells and primary T lymphocytes) (human) (UniProt P10747). Kind of assay: cell-based or functional assay.

anti-CD28 Mab 28.2 (antibody) had a % of dead cells, 3G6-CD28 transduced T lymphocytes, OKT3/28.2, day 3 (trypan blue) of 10%; a % of dead cells, NTP transduced T lymphocytes, OKT3/28.2, day 6 (trypan blue) of 15%; an IL-2 secretion with PMA and ionomycin (ELISA, 24 hours), Jurkat-NTP of 960 pg/mL; an IL-2 secretion with PMA and ionomycin (ELISA, 24 hours), both cell populations of 3 fold.
